Assay results as given in patent US20180371090A1.

Key:
[1] = target: His-tagged cynomolgus FcγRIIA (cynomolgus); assay: SPR steady-state, His-captured receptor, 25 C
[2] = target: His-tagged cynomolgus FcγRIIB (cynomolgus); assay: SPR steady-state, His-captured receptor, 25 C
[3] = target: His-tagged cynomolgus FcγRIIIA (cynomolgus) (UniProt Q8SPW2); assay: SPR steady-state, His-captured receptor, 25 C
[4] = target: His-tagged human FcγRIIA (H131) (human) (UniProt P12318); assay: SPR steady-state, His-captured receptor, 25 C
[5] = target: His-tagged human FcγRIIA (R131) (human) (UniProt P12318); assay: SPR steady-state, His-captured receptor, 25 C
[6] = target: His-tagged human FcγRIIB (human) (UniProt P31994); assay: SPR steady-state, His-captured receptor, 25 C
[7] = target: His-tagged human FcγRIIIA (F176) (human) (UniProt P08637); assay: SPR steady-state, His-captured receptor, 25 C
[8] = target: His-tagged human FcγRIIIA (V176) (human) (UniProt P08637); assay: SPR steady-state, His-captured receptor, 25 C
[9] = target: His-tagged human FcγRI (human) (UniProt P12314); assay: SPR (Biacore T200), His-tagged receptor captured by anti-penta-His, antibody injected, 25 C
[10] = target: His-tagged human FcγRIIIB (human) (UniProt O75015); assay: SPR steady-state, His-captured receptor, 25 C
Chain of His-tagged human FcγRIIIB (human) (O75015 17-200 limits assumed): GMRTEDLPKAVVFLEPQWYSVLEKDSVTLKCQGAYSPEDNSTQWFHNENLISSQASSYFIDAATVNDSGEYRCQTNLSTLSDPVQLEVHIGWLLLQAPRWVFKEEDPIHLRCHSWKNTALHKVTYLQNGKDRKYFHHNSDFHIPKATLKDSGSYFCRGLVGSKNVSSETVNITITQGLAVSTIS

Chain of His-tagged human FcγRI (human) (P12314 16-288 limits assumed): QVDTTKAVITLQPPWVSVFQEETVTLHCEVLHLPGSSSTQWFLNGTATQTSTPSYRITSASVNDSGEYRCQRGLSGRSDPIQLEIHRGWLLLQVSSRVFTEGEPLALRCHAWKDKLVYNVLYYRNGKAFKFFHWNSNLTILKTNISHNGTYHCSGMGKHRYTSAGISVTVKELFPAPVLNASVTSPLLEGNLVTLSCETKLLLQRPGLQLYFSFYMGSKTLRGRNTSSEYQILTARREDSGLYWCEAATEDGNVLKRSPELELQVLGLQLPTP
Chain of His-tagged human FcγRIIA (H131) (human) (P12318 36-218 limits assumed): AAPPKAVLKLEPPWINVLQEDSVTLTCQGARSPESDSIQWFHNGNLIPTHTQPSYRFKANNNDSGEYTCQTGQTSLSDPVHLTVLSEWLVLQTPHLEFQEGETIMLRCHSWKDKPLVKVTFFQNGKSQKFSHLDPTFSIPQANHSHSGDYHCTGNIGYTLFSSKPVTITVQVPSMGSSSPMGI
Chain of His-tagged cynomolgus FcγRIIIA (cynomolgus) (Q8SPW2 17-208 limits assumed): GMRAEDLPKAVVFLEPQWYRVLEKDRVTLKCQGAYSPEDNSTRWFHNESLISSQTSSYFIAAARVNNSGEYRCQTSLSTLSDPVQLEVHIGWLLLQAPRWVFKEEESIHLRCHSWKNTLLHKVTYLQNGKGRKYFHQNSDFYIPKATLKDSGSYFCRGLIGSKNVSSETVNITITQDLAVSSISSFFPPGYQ
Chain of His-tagged human FcγRIIIA (V176) (human) (P08637 17-208 F176V limits assumed): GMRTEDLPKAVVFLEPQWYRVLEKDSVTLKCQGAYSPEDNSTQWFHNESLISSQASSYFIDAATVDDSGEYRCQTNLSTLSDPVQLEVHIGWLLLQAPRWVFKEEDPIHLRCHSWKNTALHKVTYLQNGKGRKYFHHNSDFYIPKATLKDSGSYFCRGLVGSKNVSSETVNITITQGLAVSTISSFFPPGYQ
Chain of His-tagged human FcγRIIIA (F176) (human) (P08637 17-208 limits assumed): as the sequence (P08637 17-208 F176V limits assumed) above, with V160F counted along it
Chain of His-tagged human FcγRIIB (human) (P31994 46-217 limits assumed): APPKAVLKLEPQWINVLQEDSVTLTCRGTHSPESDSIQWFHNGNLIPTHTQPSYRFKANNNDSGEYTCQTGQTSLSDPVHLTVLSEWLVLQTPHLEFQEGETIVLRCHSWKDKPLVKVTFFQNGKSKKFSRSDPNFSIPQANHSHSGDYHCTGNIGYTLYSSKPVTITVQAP
Chain of His-tagged human FcγRIIA (R131) (human) (P12318 36-218 H167R limits assumed): as the sequence (P12318 36-218 limits assumed) above, with H132R counted along it

Substance	Kd [1] [µM]	Kd [2] [µM]	Kd [3] [µM]	Kd [4] [µM]	Kd [5] [µM]	Kd [6] [µM]	Kd [7] [µM]	Kd [8] [µM]	Kd [9] [µM]	T1/2 [9] [min]	koff [9] [s⁻¹]	kon [9] [M⁻¹ s⁻¹]	Kd [10] [µM]
Wild-type IgG4 "CPPC" Isotype Control (antibody)	19.3	9.6	5.8	12	10	9.8	26	10	0.0139	5	0.00236	171000	–
Wild-type IgG1 Isotype Control (antibody)	4.2	4.2	0.6	1.1	–	–	1.3	1.5	0.0043	15	–	–	2.3
